Test results published in publication PMC8221569.

Target: human histones H3.1–H4 tetramer (human) (UniProt P68431)
Experiment: ITC; MicroCal PEAQ-ITC, 20°C, 20 mM Tris-HCl pH 7.5, 500 mM NaCl; 300 μM DNAJC9 HBD in the syringe, 30 μM (dimers) H3-H4 in the cell; one set of sites model; n = 3

Chain of DNAJC9 HBD (171–249), GST tag removed (Q8WXX5 171-249): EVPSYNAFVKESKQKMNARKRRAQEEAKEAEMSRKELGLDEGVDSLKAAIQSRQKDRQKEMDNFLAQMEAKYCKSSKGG

Substance: DNAJC9 HBD (171–249), GST tag removed (from UniProt Q8WXX5 171-249) (domain or fragment)
- Kd: 39.5 nM
